Measured values published in doi:10.1101/2022.12.21.521423 (bioRxiv, 2022).

Columns and labels:
HA-LRRC37B-LRR-ECTO = HA-LRRC37B-LRR-ECTO (human, UniProt Q96QE4 468-841); test: cell-surface binding assay
HA-LRRC37B-ECTO = HA-LRRC37B-ECTO (human, UniProt Q96QE4 28-905); test: cell-surface binding assay
HA-LRRC37B-ECTO, sequence (Q96QE4 28-905): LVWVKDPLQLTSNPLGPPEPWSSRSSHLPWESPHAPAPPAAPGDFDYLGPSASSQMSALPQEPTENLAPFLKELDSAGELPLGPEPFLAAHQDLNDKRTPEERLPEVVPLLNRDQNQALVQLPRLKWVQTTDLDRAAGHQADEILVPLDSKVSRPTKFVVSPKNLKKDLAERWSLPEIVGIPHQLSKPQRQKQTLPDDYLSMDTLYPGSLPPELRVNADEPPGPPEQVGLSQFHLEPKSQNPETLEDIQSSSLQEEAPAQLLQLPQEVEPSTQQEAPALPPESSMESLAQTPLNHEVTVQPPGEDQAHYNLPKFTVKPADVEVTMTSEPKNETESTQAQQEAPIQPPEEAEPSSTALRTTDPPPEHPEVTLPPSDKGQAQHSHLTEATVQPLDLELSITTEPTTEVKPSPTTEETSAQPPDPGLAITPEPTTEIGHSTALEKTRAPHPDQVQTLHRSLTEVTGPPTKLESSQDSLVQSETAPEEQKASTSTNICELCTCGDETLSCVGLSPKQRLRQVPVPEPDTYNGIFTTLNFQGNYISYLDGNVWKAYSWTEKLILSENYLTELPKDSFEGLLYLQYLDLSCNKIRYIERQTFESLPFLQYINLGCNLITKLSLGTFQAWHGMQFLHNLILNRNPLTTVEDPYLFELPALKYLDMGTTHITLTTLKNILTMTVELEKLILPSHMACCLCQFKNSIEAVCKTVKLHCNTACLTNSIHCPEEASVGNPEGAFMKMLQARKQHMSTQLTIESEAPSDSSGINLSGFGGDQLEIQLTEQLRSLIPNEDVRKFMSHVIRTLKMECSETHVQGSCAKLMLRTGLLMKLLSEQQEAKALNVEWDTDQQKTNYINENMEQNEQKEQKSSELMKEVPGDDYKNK

HA-LRRC37B-LRR-ECTO, sequence (Q96QE4 468-841): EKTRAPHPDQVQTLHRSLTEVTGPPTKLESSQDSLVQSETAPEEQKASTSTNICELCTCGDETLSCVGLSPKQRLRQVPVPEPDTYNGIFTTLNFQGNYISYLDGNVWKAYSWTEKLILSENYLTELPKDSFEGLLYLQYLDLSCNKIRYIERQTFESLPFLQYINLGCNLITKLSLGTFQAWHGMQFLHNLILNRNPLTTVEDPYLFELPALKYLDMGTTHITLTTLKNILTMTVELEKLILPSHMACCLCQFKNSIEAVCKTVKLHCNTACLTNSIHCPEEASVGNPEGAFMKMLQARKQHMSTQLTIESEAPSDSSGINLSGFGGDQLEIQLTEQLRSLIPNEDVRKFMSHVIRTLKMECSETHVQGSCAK

B1: FGF13A ExonS-biotin (peptide)
peptide: MAAAIASSLIRQKRQAREREKSNACKCVSSPSKGKTSCDKNKLNVFSRVKLFGSKKRRRRRPE
modifications: also: biotin (position not given here)
B1 gave a Kd (HA-LRRC37B-LRR-ECTO) of 1.18 ± 0.718 nM and a Kd (HA-LRRC37B-ECTO) of 2.29 ± 1.04 nM.
